What was measured:
[1] = substrate: CCCCCCCCCCCCCCCCCC(=O)OC[C@H](COP(=O)([O-])OCC[N+](C)(C)C)OC(=O)CCCCCCCCCCCCCCCCC; assay: radiochemical PC:MLCL transacylase assay, TLC and scintillation counting, Lineweaver-Burk; assay type: biochemical, Mus musculus; conditions: labelled compound (3H), acyl donor 0-200 μM, acceptor MLCL 100 μM (methods text: 40 μM final), pH 8, 37 °C, 2 mM DTT, 0.1% Nonidet P-40, enzyme on anti-HA beads, apparent
Source text: (§1) radiochemical PC:MLCL transacylase assay, TLC and scintillation counting, Lineweaver-Burk on PLAAT1

[2] = substrate: CCCCCCCC/C=C\CCCCCCCC(=O)OC[C@H](COP(=O)([O-])OCC[N+](C)(C)C)OC(=O)CCCCCCC/C=C\CCCCCCCC; assay: as above; assay type: biochemical, Mus musculus; conditions: labelled compound (3H), acyl donor 0-200 μM, acceptor MLCL 100 μM (methods text: 40 μM final), pH 8, 37 °C, 2 mM DTT, 0.1% Nonidet P-40, enzyme on anti-HA beads, apparent
Source text: as §1

B1: PLAAT1 (Mus musculus) (protein)
chain: MAVNDCFSLTYPHNPHPGDLIEVFRPCYQHWALYLGDGYVINIAPIDGIRSSFTSAKSVFSTKALVKMQLLKDVVGNDTYRINNKYDTTYPPLPVEEVIQRSEFPIGQEVAYDLLVNNCEHFVTLLRYGEGVSEQANRAIGTIGLVAAGIDIFTFLGLFPKRQRTKY
notes: complete coding region; C-terminal 6xHis, HA-tagged; adenoviral expression in HEK-293; immunopurified on anti-HA beads
With B1 the Km [1] was 126 µM, the Vmax [1] was 1.61 µmol/min/mg and the Km [2] was 16 µM. For the same protein, the Vmax [2] was 0.61 µmol/min/mg.

Reference: PMC9224490, “PLAAT1 Exhibits Phosphatidylcholine:Monolysocardiolipin Transacylase Activity” (International Journal of Molecular Sciences, 2022)
